Test results from the DeepSol protein solubility set.

Test: soluble on expression in E. coli; label from the status in PepcDB or PDB records

Soluble on expression in E. coli, not soluble:
MGRGEHKEHKRKRSRSKERKRSRSRSPRGSREHREHRDRDRDRERRRERDTDREKTRDREKQRDAEKKKEKESKTAIFEMEESRNDTEEVMKMKEAELLQGVERRRRNVEKWRAQKKKEELDLQSEQSDEKSEKKPWNLEDEDDEDEFDIKNEGISEENPVKMEEKVEKMDTDDEEDPLDAFMKEIATKNAKKTGNSTQKASGIVTIVQEEKPEPEKGQVLENEDNMDMVIDDFDIETAAASLCHKGRMLAQTDHSKVYYRKFKKNFYIETEEIRRMTKAEVKAYREELDSITVKGIDCPKPIKTWAQCGVNLKMMNVLKKFEYSKPTSIQAQAIPSIMSGRDVIGIAKTGSGKTLAFLLPMFRHILDQPELEEGDGPIAVILAPTRELAMQTYKEANKFAKPLGLKVACTYGGVGISEQIADLKRGAEIVVCTPGRMIDVLAANSGKVTNLRRVTYLVLDEADRMFDKGFEPQIMKVVNNIRPDKQTVLFSATFPRHMEALARKVLDKPVEILVGGKSVVCSDITQNAVICAEHQKFLKLLELLGMYYEEGSSIVFVDKQEKADDIVDQLMRTGYNSVAPLHGGIDQHDRDSSIADFKTGVIKVLVATSVAARGLDVKNLILVVNYDCPNHYEDYVHRVGRTGRAGRKGYAYTFVLPEHQEKMAGEICRAFETAGCKPPADLKAMFERFKSEMAAEGKEVKLGGKGFEGSGYKYDEGEAEADANKKRMTRLTAQLQRGGTQARYKV
MGSDKIHHHHHHAAEGRKDFNLYTLVPGSATVVLETDDLAGMIQGINELSCSKDRHFLYVSKLFSYLKLHLYTLLEDTPHGLSKQMNKVLLSFHEPDNDRNQVLYCSLGNGDYELVEKFIRKYCSSSFPSKLFDYKGEEIRIYPMPDDSFLACYFTSDFLVVSYQKKLIEQVIDARLSKKSLLTDASFAKVHEDKRARVAATIYARMQPLSMGKATDGIRSCTQLGGWTEFDMKMNGDAIYFSGVSHDTDTCLTFMNVLRQQQPVEDFPGDILPASTFFFNKRSVTDMQAMLDFTARQEYTTSTYSDYIRDRDGELLAYLKENAGGEIVTCLFHSTDTLSNPCAVMSIPLRDGQQAERVLQGMLRTAPKEVDGPPKPRTTFCKTPLRAYTLYVLPRNTLFTQLTGITESALYIYACFYEGRLVLAPDVESLTAYLRHLDKKEILDDTPGYEEAVVNLSPSYNFMMVADLGETFSQPENYVRLIPAFFFRNQEFFRHFILSAQFTCTDGIVYPNVVLIYKGESDDVS
MGSDKIHHHHHHAAPAPQAPALPANLTTRTWVLTDLAPGGKLRRVTGERPTLTWTVQPGGLQLSGSTGCNTYRGPATVTGQQLKVSALATTRRGCAPTQAQQENDFLTLLRGASHYRLSGQTLTVYAASTARLVFTAAPGGSMTTPSNTPAGANTPTGTTLKAAQLAGDWQLTDLREGGQAVTLPADAPFTFTASGTNTLRLSGMAGCNRLMGEVTLSGAGLTFGPLAATRMACEDMTAEQALSRVLQGSGQVTLKGDTLTWHRSGGEVVLTRRAPAATTADLSGSYRLLSVNGTAADARRTVSLTFKAGQVGGFDGCNSFGGEYSLDKAGHLTAGNLVTTLRACPDQLDQPILTALLGQAPTVQLRGRTLTLDAGGERWVFERE
MGSDKIHHHHHHAATHAKTTKTVKTTGGAKTKAAKAKAIKSTSTHIKLQGASNARDLGGYVNRHGQKIKAHRLIRANSLSHLTKADQTKLVKTYHVATDVDLRTTTEQKMSPDVHMAGVKLVKANVFKSFGAFPDFSKKGAGAKMMEKTYHDAVTTAQGRKAYKSLFHQLLINPKGKAVLWHCSAGKDRAGMGTALVLSALKFDKKAIAQDYLKSNTYLAQTNKENLQKMEAGWKAQGKEVTPIVVENFRAQNAVKMAYLNTMYKAIDAKYGNMDNFLHKGLGLSNTQLKQLQANYLTSAK
MGSDKIHHHHHHAAVTKTTWSDAPAREFVFVENNSDDNFFVTPGGALDPRMTGANRWTGLKYTGSGTIYQQSLGYIDNGYNTGLNANWKFDMWLENSPVSHPLTGLRCINWYAGCDMATSLILPQTTDASGFYGATVTSGGAKWMHGMMSDAFYQYLQQMPVGGSFTMTINACQTSVNYDASSGARCKDQASGNWYVRNVTHTKAANLRLINTHSLAEVFINSDGVPTLGEGNADCRTQTIGSRSGLSCKMVNYTLQTNGLSNTSIHIFPAIANSSLASAVGAYDMQFSLNGSSWKPVSNTAYYYTFNEMKSSDSIYVFFSSNFFKQMVNLGISDINTKDLFNFRFQNTTSPESGWYEFSTSNTLIIKPRDFSISIISDEYTSAPSREGYVGSGEPALDFGYIVTTSGKTAADEVLIKVTGPAQVIGGRSYCLFSSDDGTAKVPFPATLSFITRSGTTQTYDAGCDDSWRDMTDALWLTTPWTDISGEVGQMDKTTVKFSIPMDNAISLRTVDDNGWFGEVSASGEIHVQATWRNIN
MGSDKIHHHHHHACDDYLDDVPKGQKIPKTWEDYNAFIRNNFSYHFLDPDQLAVLAGDIFKLPSAVTSPSLTRANYYADESVNRIDLMTGNDKNPYFNAYEGLFAWNLIVEDVPDATECTEVQRRQLIAQGRVLRAMHYFYLANFYADQYDEATKDKLSVPLITSASVEAPSPQVTLQTIYEFMLDDLNKAVEDLPVHSESILHPNRALGYGMLARVYLSVGDYDNALKNASLALEQNDQLFNWIDLYEADKERYDDPKNYTSGVAGNPETDNVENYIYCYGSSTSGWTGLNNTSYAISPERAARFEKGDTRLLTHWKSRVSSSGIPYYAGIYALEMNKGGMRSPEMYYIKAECLARKGGEANIREAMELVNKVRKTRILLEFYQDWTAATTKEAVEKIIRDKESEYIQTQVIYCDYRRLNKDPEYARTFPRTIEGKEYILKSDSHLWIMPFPREAVSNPGNGTITQNVEK
MGSDKIHHHHHHACDGKVYKKGDKIMFGVPKVSGYLFVRTFTKDGKISTMPKENLASQEAVIVDIPDYDKKLFEGMGVYSEVETHPLVVVELDGRRLCININDALSQGNIVSEYFKSEVEGMVDLTSDLLFVYALKLNNVTVDDDVIVRYMAHCDKNLVEKNQADPFTMADLKKEYAAKLEKALGDVDFSKVFRIESQSEMLQYDMDKQIFPLKGLWCPQIKTDQPDALAKIGFCKWDDCVFRFVNIPEFMNVPCETARAKGFYDMRKVGKVPTYNTPLATSYTYIRFLDKKVQLPEKKNKVYHNGDIKSMSLADLYGKMAIEAQIIKMDVYHLPFLKISDFELFYNYLGSIEVK
MGSDKIHHHHHHAERKNALKVDNGHYYKWKEGNIFYTKTGTGKPILLIHDTDSGASGEEWAKVAKKLAKNNTIYTIDLLGCGRSDKPSIQYTSYMYVQIITAFVDDVIGKPVNVAATNLSTAPVIMANALSKDLFNKIILINPVSLQQLKCIPDKSTKFKQNIINLPIVGTFIYNKLMSPIKVDLLFRNKFISRSQLISDNMKDAYYESAHKGQSRGKYLYSSILSNYINTNIAPALKNLDKDVSIIASTGIKNNMDVINNYHKLNSKCDIIHIANAKLYPQLELPEKTASIIKKIVTN
MGSDKIHHHHHHAETVVVRLGLFTESISLTELQNAAKTGELPRSLQSYAKGLSEQQRRFLLGALGMNIPMNVVTINKLLNTQIGTTILNDFATALARKDNAGVQALRGGLVLGSTAPGGLSILSFIAAYPSKRLEIDLPKAFIVAGNLNTAFWRTQQFMVAIAPRLDSTTSQIAFPFDPSQPGTAQVKILNLSLNDQKRQRKIPVDIYWSNDATANKPLIVFSHGLGSVRTDLRYLAEHLASHGYVVAALEHPGSNEDNINSALQGKTRPVKPQEFLNRPQDVSFVLDELEKLNQTTNHPLQGKLATMNAMVVGYSFGGSTALALAGGELQLERLKQRCKKNLAILSLGEAMQCIAQELPENTYQLRDTRIKQAIALNPTTSLIFGETGLTKVQVPTLVLAGSADKTTPALTEQIVGFDKIPSPKWLVGIVGGTHLSVKDPSKTMDQIGQPNTPISGGEVVGEQAADIRKYLKAITLAFAAQMTPEAKNYAIFLTSDYAQFASTKAFPFRLITQIPSNAMPVVKEFGDK
MGSDKIHHHHHHAEYIHVIPADASAVASINLNSLADKAGLNDKQNEGMKQKMMEALKSGMNAAAFQQLEKIMKNPSQSGIDVKAPVFVFTSKTFISPTIVAKVSNIEDLRASLDLMAKEGICQPIAEEEGYSFTSLQKNNLLVFNENAAVLTEAYGTSQMDVAKQTISTLLKQTEENSIASNGSFRKMQDQKGDINFFASMDAVPKMYTQQISLGLSSQIDLSEVKAVGNLNFEKGKIALQIETYSDNAETDALLKKQAQAVKKLNTTFLQNFPESTLAFLNIGVNGAAFYDLLFNNEEFRRNVSLAKADEVKSLFASFDGDISIGLINVTLNSVPTFAAYADAKNGNALKALYDNKKQLKLGKNEDIIQLGENEYVYKSRATNVFFGIRNKQMYATNDELLYKSISKPVEKSIKDAGYVSDMKGKNVFFVINMDAILDLPVVKMMAGFGGEEYQTYYKLASKISYIEAFSDSEGKTETAILLKNKDDNALKQIVDFAKQFAGM
MGSDKIHHHHHHAGCAMIPPEPVVTGPLTAPPPPPPQPSARPNGSIYQPSAYGNYPLFEDRRPRNVGDIVTIVLEEKTNAAKGVATNTSRDGSATLGVAAAPRFMDGIINDKLDTDISGGNTANGTGKSSANNTFTGTITTTVIGVLPNGNLQIAGEKQIAINRGSEYVRFSGVVDPRSITGSNTVSSTRVADARIEYRSKGVMDEVQTMGWLQRFFLIASPF
MGSDKIHHHHHHAPFVFDQQSYRQDVQTLASDEFEGRGPLSQGETLTVEYLENAFKKMGLAPGFGDSYRQSVPMAKITADQNMQLKVGELVFNNGSDFTARTEQIQPSITLDNSEIVFVGYGINAPEYGWNDYAGIDVKGKTVILMVNDPGFATQDPEVFKGNAMTYYGRWTYKYEEAARQGAKAVFIIHETAPAAYGWNVVQNSNTNTKYTLVDKEKNRSHIGVMGWVQHEVAQKIFTAAGLDYDKLKLTAAKPGFKSRSLDLKANLEVKNDIELATSYNVAGLLPGKTRPDEWLVMHAHWDHLGKTVHEDQTRIYNGAVDNASGVAGVLQLARHFKDLSATQPPARSMLFSAFTAEETGLIGAQYFAENSPVPTKQLVAFLNIDGMNVGKGVDYILRYGEGVSELENYLDKAAKAQGRWVKADPRPQNGLMFRSDHFALAKQGVPGLMFMSLGDTDPDYIAHKYHQGADDYDPSWTLGGVEQDLALISDILEKLANNNDWPKWLEASDFKTRRAQDGR
MGSDKIHHHHHHAPKKKEEPSPEASSSKRPFRVCLNVSTIAGYKLPVQKQIDLCAEAGFEGIELWTRDVDAFVKQGGTYETLRRQLEGSGLLLENMIGFASWFADDLSKRKEGLNQMRHDMEMVAGLGGKFIAAPAQGVTQLDRTRLPEYSERYRAILDLGDEMGVTPILELWGAGILNQLSDTMAIAIASGHSRASVLLDFYHLYRGGNSFDSLRLINGKILPVFHINDYPELPPRTELRDSDRVFPGDGICPFNKVLPLLYDSGFRGGLSVELFNKGYWETMDVKEVLKKSFEKTTQVINSSMG
MGSDKIHHHHHHAQKGVDNGTQFGSGEDSVRCITNISLFVPYAKAGNFKDAYDFWKIVYDECPAATKDIYLYGVKIMGWKIAQEKDPAKKNALIDDLMGVYDKRVKYFGNDRRYGKDWIVARKVQDYLAQTGDNADYNQAYTWLKEIVDEKGADTEALGLSLFSFSSMKKMLNDPNFKEQYIQDYLKVSAGLDAQLKAAQAANNQKEVNALTAYKSGVDNAFANSGAADCETLQNLYAAKIEENKDNLPYLKETISLLRRTGCQEIEAYFLASDYAYRQEPSAEAAVGLGKKAVKIKDYDTAIKYFDEAANLETDATSKADDYYMIALLLFEQNAYSKARQYCQKALEVNPNYGNAYLLIGKMYAATSKSVFPNDGVLARAAYNAAIDKFEKAKQVDPSVAEEANTLISSYRAHLPSTEEIFMHPDLEKGKPFTVGGWIGERTTIR
